From the DeepSol protein solubility set

Assay: soluble on expression in E. coli; label from the status in PepcDB or PDB records
In the case of “MGSDKIHHHHHHMSSKVKVIAFYLPQFHPIPENDEWWGKGFTEWTSVGRAKKYYRGHYQPRVPADLGYYDLRLPQVRQQQADLAKEAGISAFCYWHYWFGNGKQLLENPLQEVVKLGEPDFPFCLGWANHTWLNKSWNREKQTVIPKPLILQEYPGKKDVDCHFYTMLPMFRDQRYFRIHGKLLFLIYAPLDIPNFKYFKMRWNELASQNDLPGFYFIANSEDISNIKNPIIREFEAVSLCRLYSAWNIEGKKVNNIVIRITRNISRILGYSLNKISYKKAIEKIDTPYYEEDRVYPNIIPGWDNSPRRGPGAFIFHKATPALFKKHVKMILNRIKDKPDEDKVIFLKSWNEWAEGNYMEPDLKWGKGYIRALREALEEDAK”, the “soluble on expression in E. coli” value was “not soluble”. For “MGSDKIHHHHHHLNNCGMVAWIMTLYTPEKPRGFDLIVIGNDVTFQSGSFGTAEDDLFAAASTYSREHKLPRVNVSVNSGARIGLSTKISKLVKLQLENEDKPEQGFEYIYIDGEHKAQIEGEVVYEELGNGRLKILAVIGAKNEKIGVENLQGSGLIAGETARAYAEVPTYCYVTGRSVGIGAYTARLAHRIVQHKQSHLILTGYEALNTLLGKKVYTSNNQLGGPEVMFRNGVTHAVVDNDLEGIAKVIRWMSFLPTPTEEFPFFSKHGDDCSARDVVIPSDSEQNTYDVRDLIDSKNLSNQTGICDTMSFDEICGDWAKSIVAGRARLCGIPIGVVSSEFRNFSTIVPADPAIDGSQVQNTQRAGQVWYPDSAFKTAEAINDLNKENLPLMIIASLRGFSGGQKDMYDMVLKFGAQIVDALAVYNRPVIVYIPEAGELRGGAWAVLDSKIRPEFIHLVADEKSRGGILEPNAVVGIKFRKPMMMEMMKRSDPTYSKLSSSTEPEAREQLEERYEELSKTYRNASVEFADAHDRWQRMKSVGVVEHVTSLTNSRRLFSELLRNEL”, the “soluble on expression in E. coli” value was “not soluble”. In the case of “MIACICAITVMAQVQTHDVKGVVFDRRQQPIVGALVTAKGTNISTITDVDGKFLLQEVPLSVKKVVVTSIGMETREVDLNVPVQLTGKRKKVSFVAHAGLSMSKYTIYGSDFKVGYEFGLGIEVRMSKRWAFQPTLQICNHGAEFNAERYGVKYQETWNPVSLDLPMLFILRCPIARKMNLAFSMGPVFSYGFAGKVKASETGKPDEEYDIYSSEYEYDYSGGKHSLLHPFSFGVAYGIGVEYKKWLAGISGKSMCLGQDDEGFEAKEHNLVLTLGVIYRF”, the “soluble on expression in E. coli” value was “not soluble”. For “MLIKLTGGTVYDPANGIDGQVRNLFIRDGRIVHSLNGATPDQEYDLRGKVVMAGAIDMHTHIGGGKVTIARNLLPEDHRADPEPRRGLMRAGCGHAAPSTLTTGYRYAEMGYTAGFEPAVLPINARQAHMEMADVPLLDVGGYVMLGSDDFFLRLLSAGSDQKLINDYVAWTIRSAKAIGIKVVNPGGISAFKFNQRMLDLDEKHVYYGVTPRQILKSLARAVHELGVPHPLHVHGCNLGVPGNVETTLNTISGIEGLPMHLTHIQFHSYGVEGDRKFSSGAARIAEAINANKNITIDVGQILFGQTVTASGDSMRQHANAGHAHPDKWVCMDIECDAGCGVVPFKYRDKNFVNALQWCIGLETFLLIDDPWRVFLTTDHPNGAPFTTYPHLIRLLMDKSFRNDMLATINPEAAALSTLGSIDREYSLYEIAIMTRAGAARLLGLTDRGHLGAGAAADITVYTDQADKEKMFTRPDYVFKDGELVVRNGEVVKVVWGNLHTVQPEFDNGIEARLRDYFDRYHTMKLDNFVINDWEIEGDGRSKILVHPCHQGTRSLEHHHHHH”, the “soluble on expression in E. coli” value was “not soluble”. With “MGSDKIHHHHHHDKDFGGLENIGWNEKPLQITTRILTTKSTNFIQEFKEGSMLGLQITSGTVDDLYNGISTYKNVSVKAYRVNGKIRWQQSPEVILDSNEATIYAYYPYQEDINFNARQIPVKLAPNALETDDYMYGTHAIGQKAVNSTSPLVLLSMNHALSLISFQLNLSKGKTGAFIISSVQVGNKPGGTTLVSEGTLDITTGDIIGSTARSTSASTVLSLTNPVTLINEKYCDPMRLMVIPPSGTIGTGDVETLFTINGETYKFDIPANTQWEKGKKYLYKLSFNGRSLQLRDVSITDWLPGNDEGLIGNIM” the “soluble on expression in E. coli” value was “not soluble”. With “MEERILFSQKTTIFVPVDNDSRIKPMSKDSLCAQHTDCSGCPKAMESTLIHRNLLRGQHIPKDKCTQNCMLFMIEGELLINSDEHPGTTLHEKQFILQAIGSKYEILALTDVSYILFWFNELPLLCENRYREIIDQAEGPLTYTPMVMNPRLFYLINDVAAYLDESTPACGKYIDLKCQEMVYMITNYYPLPQLRAFFYPISTYTESFQYFVMQNYSKAKNVEEFAHLGGYNTTTFRRLFRNLYGVPVYEWMLEKKREGILEDLQHSNMRITEICNRYGFDSLSHLAHFCKDSFGDTPRALRKKAANGEKIGKITD” the “soluble on expression in E. coli” value was “not soluble”. For “MTTTEVKMFTFNSVAENTYILYDSTGEAALIDCGCMDGSEEQQLLRFVQEQQLTVKLLLNTHLHFDHAWGNGFAAKTFGLPVLTHRAEVEEMPSPSKQLAAFGMFGTMDEPPIQYIAPGDVLQLGESIIKVLFVPGHSPGHLAFYCPQAQAVFTGDALFAGDMGRTDLWGGSYELLKKSIRTELLPLPDDTVVYPGHGPTSTIAYERTNNPFLD”, the “soluble on expression in E. coli” value was “not soluble”. With “MSEKSIVTKILRYLKTVPGCFCWKEHGGMYGTAGLPDIIACVNGRFIAFEVKTPSGKTTKLQEATIKKILNAGGVAAVVHSVDEVKVILEKHDLLQRTKI” the “soluble on expression in E. coli” value was “soluble”. In the case of “QSILQDLFLLLIKFPKEEKTVEVFDTSPKIQLSNYEQYRQDALLAKAEGEQNKINTVLSYTEKTLAPYVVESELSNLCTQISHFLSSDWKEEECREIKISSQLKSIDLMHFGWNIAQPFGKSRKEISTFLKYTFAHALEDVEVSTLQRKLTNTEGKFLIPLQEKLSTESYSSS”, the “soluble on expression in E. coli” value was “not soluble”. In the case of “MTHSQQSMVDTFRASLFDNQDITVADQQIQALPYSTMYLRLNEGQRIFVVLGYIEQEQSKWLSQDNAMLVTHNGRLLKTVKLNNNLLEVTNSGQDPLRNALAIKDGSRWTRDILWSEDNHFRSATLSSTFSFAGLETLNIAGRNVLCNVWQEEVTSTRPEKQWQNTFWVDSATGQVRQSRQMLGAGVIPVEMTFLKPAPLEHHHHHH”, the “soluble on expression in E. coli” value was “soluble”. With “MFHLKTFSDMVESIQITSFHNAELLNFMIDEVKDARTLSKNEIIPTLDELDKVLATFKKGIAMNKTSEYSEKITALDAVRSKAFRNFIGCIQGETHRPEEDHREAARRLFILLKPYNNLNRKSYRNKTELMYKLVEVLRSDKHASDVQTVNVSAWIDKMDNANKAFDQLFDLRDNTEGERLIINNREMRHRIRLHYNRLLEIIEALLVLHADRPLEGFVGRHNERVAKMKALFALRASIGTKSTREKRDVLRSLAIGLGWSLPAGQEDFEFFAGTRILHPTEHRWYCLGKKDNIITLVLYKGKKKQSSSSSSNSSVDLPDLPAPPPSQPDNGSSGGGGEQGGGGSGGL” the “soluble on expression in E. coli” value was “not soluble”. In the case of “MDNKNFQSKTGFNLENTYLTLPNIFFSEQNPKGSKNPKLIKFNTSLAEELGLNEEVLNSDFGLNIFAGNETFPGIVPIAQAYAGHQFGHFTMLGDGRALLLGEHVTKDCKRYDVQLKGSGRTIYSRGGDGKAALAPMLREYIISEGMHGLGIPTTRSLAVVSTGEEVLRERFEQGAILTRIASSHIRVGTFAYAAQWGTLEDLKSLADYTIKRHFPNIADNENKYILFLEEVINRQAELIVKWQSVGFIHGVMNTDNMVISGETIDYGPCAFMDTYDTNTVFSSIDYAGRYAYGNQPNMALWNLARFSEALLPLLNPNLDEAVNIAKKSISNFSKLYKKYWFNKMRTKLGLFTEKENDELLIEGLLSTMQKYEADFTNTFVSLTLNKFEDEKVFSSDEFKTWYALWQNRLKEENRPQEEVRNLMMNNNPYIIPRNHLVEEALKNAEKGDFTFMDNLLEALKNPYSYSKDLEKYTKLPEKSDTPYVTYCGTLEHHHHHH”, the “soluble on expression in E. coli” value was “not soluble”. For “MANHPRAGQPAQQSDLINVAQLTSQYYVLQPDAEDPAHAVKFGTSGHRGSSVRHSFNEAHILAIAQAIAEVRHQHGISGPCYVGKDTHALSEPAFISVLEVLTANGVDVVVQQDNGFTPTPAISHVILCHNAQGKALADGIVITPSHNPPEDGGIKYNPPNGGPADTNLTSVIEKRANQLLSQNLKGVKRQTLDKAWQSNHLREQDLLQPYVEGLVDVVDIPAIQQAGLKLGVDPLGGSGIAYWQRIAEYYKLDLTLVNNAIDQTFRFMHLDHDGVIRMDCSSESAMAGLLALRDKFDLAFANDPDYDRHGIVTPAGLMNPNHYLAVSINYLFQHRPQWGAGVAVGKTLVSSAMIDRVVADLGRKLVEVPVGFKWFVDGLHDGSFGFGGEESAGASFLRFNGTPWSTDKDGIIMCLLAAEITAVTGKDPQRHYDDLAQRFGAPSYNRIQAPATQAQKNALSRLSPEMVKANTLAGDPITARLTNAPGNGASIGGLKVMTENGWFAARPSGTEEAYKIYCESFLGAEHREKIEQEAVKIVSEVLAEAK”, the “soluble on expression in E. coli” value was “not soluble”.
